For test [1], the target named is T1, recombinant human β2-glycoprotein I (human, UniProt P02749 20-345).
T1 construct: Said to hold more cross-β structure conformation than plasma β2GPI; also called recombinant β2GPI; rec. β2GPI
T1 sequence (looked up): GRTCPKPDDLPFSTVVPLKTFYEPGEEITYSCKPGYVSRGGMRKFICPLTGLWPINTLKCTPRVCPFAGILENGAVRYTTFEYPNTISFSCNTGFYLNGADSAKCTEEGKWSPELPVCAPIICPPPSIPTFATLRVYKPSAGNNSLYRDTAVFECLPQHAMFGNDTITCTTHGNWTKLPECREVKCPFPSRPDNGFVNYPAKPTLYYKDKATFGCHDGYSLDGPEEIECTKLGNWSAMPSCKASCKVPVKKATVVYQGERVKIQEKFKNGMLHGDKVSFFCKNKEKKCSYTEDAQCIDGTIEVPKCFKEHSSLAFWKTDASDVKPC
In words: SPR (Biacore), chemically synthesized HGFA F immobilized (190 RU). On the procedure: The running buffer during immobilization was 10 mM HEPES pH 7.4, 140 mM NaCl. Buffers were filtrated on a 0.22 μm filter (white GSWP, 47 mm, Millipore) and degassed at room temperature.
Regeneration buffer was running buffer supplemented with 1 M NaCl.

In test [2] the target is T1, recombinant human β2-glycoprotein I. In words: SPR (Biacore), chemically synthesized tPA F immobilized (395 RU). On the procedure: Then, the proteins were covalently coupled to the activated dextran surface. Remaining activated groups in each of the four flow channels were blocked by injection of 35 μl of 1 M ethanolamine hydrochloride pH 8.5. EDC, NHS and ethanolamine hydrochloride were obtained from Biacore. […] The running buffer during immobilization was 10 mM HEPES pH 7.4, 140 mM NaCl. Buffers were filtrated on a 0.22 μm filter (white GSWP, 47 mm, Millipore) and degassed at room temperature.

Ends that are not written are not given here.

B1: chemically synthesized HGFA F domain (other, UniProt Q04756 200-240, looked up)
chain: EKCFDETRYEYLEGGDRWARVRQGHVEQCECFGGRTWCEGT
modifications: cysteine pairing not given here; also: acetylated lysine, position not given here
notes: domain: F domain; Made from two peptides by native chemical ligation
As for B1, in test [1], the binding result is “no binding (tested: 0-300 mM (so in the source))”.

B2: chemically synthesized tPA F domain (other)
chain: SYQVICRDEKTQMIYQQHQSWLRPVLRSNRVEYCWCNSGRAQCHSVPVKSK
modifications: cysteine pairing not given here; also: C-terminal lysine acetylated or biotinylated
notes: as for B1
Turning to B2, the binding result in test [2] is listed as “no binding (tested: 0-300 mM (so in the source))”.

Values taken from US8114832 (UMC UTRECHT HOLDING B V, dated 2012).
